Source: patent publication US20140271457A1 (AbbVie / Abbott, published 2014)

B1: DVD3012 (bispecific antibody, IgG1)
VH: EVQLVQSGAEVKKPGASVKVSCKASGYTFNNYGIIWVRQAPGQGLEWMGWINTYTGKPTYAQKFQGRVTMTTDTSTSTAYMELSSLRSEDTAVYYCARKLFNTVAVTDNAMDYWGQGTTVTVSSASTKGPSVFPLAPEVTLRESGPGLVKPTQTLTLTCTLYGFSLSTSDMGVDWIRQPPGKGLEWLAHIWWDDVKRYNPALKSRLTISKDTSKNQVVLKLTSVDPVDTATYYCARTVSSGYIYYAMDYWGQGTLVTVSS
VL: DIQMTQSPSSLSASVGDRVTITCRASQDIENYLNWYQQKPGKAPKLLIYYTSRLQSGVPSRFSGSGSGTDFTLTISSLQPEDFATYFCQQGNTQPPTFGQGTKLEIKRTVAAPDIQMTQSPSSLSASVGDRVTISCRASQDIRNYLNWYQQKPGKAPKLLIFYTSKLHSGVPSRFSGSGSGTDYTLTISSLQPEDIATYYCQQGLTPPLTFGGGTKVEIKR
B2: DVD3011 (bispecific antibody, IgG1)
VH: EVQLVQSGAEVKKPGASVKVSCKASGYTFNNYGIIWVRQAPGQGLEWMGWINTYTGKPTYAQKFQGRVTMTTDTSTSTAYMELSSLRSEDTAVYYCARKLFNTVAVTDNAMDYWGQGTTVTVSSASTKGPEVTLRESGPGLVKPTQTLTLTCTLYGFSLSTSDMGVDWIRQPPGKGLEWLAHIWWDDVKRYNPALKSRLTISKDTSKNQVVLKLTSVDPVDTATYYCARTVSSGYIYYAMDYWGQGTLVTVSS
VL: DIQMTQSPSSLSASVGDRVTITCRASQDIENYLNWYQQKPGKAPKLLIYYTSRLQSGVPSRFSGSGSGTDFTLTISSLQPEDFATYFCQQGNTQPPTFGQGTKLEIKRTVAAPSVFIFPPDIQMTQSPSSLSASVGDRVTISCRASQDIRNYLNWYQQKPGKAPKLLIFYTSKLHSGVPSRFSGSGSGTDYTLTISSLQPEDIATYYCQQGLTPPLTFGGGTKVEIKR
B3: DVD2791 (bispecific antibody, IgG1)
VH: EVTLRESGPGLVKPTQTLTLTCTLYGFSLSTSDMGVDWIRQPPGKGLEWLAHIWWDDVKRYNPALKSRLTISKDTSKNQVVLKLTSVDPVDTATYYCARTVSSGYIYYAMDYWGQGTLVTVSSASTKGPEVQLVQSGAEVKKPGASVKVSCKASGYTFANYGIIWVRQAPGQGLEWMGWINTYTGKPTYAQKFQGRVTMTTDTSTSTAYMELSSLRSEDTAVYYCARKLFTTMDVTDNAMDYWGQGTTVTVSS
VL: DIQMTQSPSSLSASVGDRVTISCRASQDIRNYLNWYQQKPGKAPKLLIFYTSKLHSGVPSRFSGSGSGTDYTLTISSLQPEDIATYYCQQGLTPPLTFGGGTKVEIKRTVAAPSVFIFPPDIQMTQSPSSLSASVGDRVTITCRASQDISQYLNWYQQKPGKAPKLLIYYTSRLQSGVPSRFSGSGSGTDFTLTISSLQPEDFATYFCQQGNTWPPTFGQGTKLEIKR
B4: DVD3014 (bispecific antibody, IgG1)
VH: EVTLRESGPGLVKPTQTLTLTCTLYGFSLSTSDMGVDWIRQPPGKGLEWLAHIWWDDVKRYNPALKSRLTISKDTSKNQVVLKLTSVDPVDTATYYCARTVSSGYIYYAMDYWGQGTLVTVSSASTKGPEVQLVQSGAEVKKPGASVKVSCKASGYTFNNYGIIWVRQAPGQGLEWMGWINTYTGKPTYAQKFQGRVTMTTDTSTSTAYMELSSLRSEDTAVYYCARKLFNTVAVTDNAMDYWGQGTTVTVSS
VL: DIQMTQSPSSLSASVGDRVTISCRASQDIRNYLNWYQQKPGKAPKLLIFYTSKLHSGVPSRFSGSGSGTDYTLTISSLQPEDIATYYCQQGLTPPLTFGGGTKVEIKRTVAAPDIQMTQSPSSLSASVGDRVTITCRASQDIENYLNWYQQKPGKAPKLLIYYTSRLQSGVPSRFSGSGSGTDFTLTISSLQPEDFATYFCQQGNTQPPTFGQGTKLEIKR
B5: DVD3016 (bispecific antibody, IgG1)
VH: EVTLRESGPGLVKPTQTLTLTCTLYGFSLSTSDMGVDWIRQPPGKGLEWLAHIWWDDVKRYNPALKSRLTISKDTSKNQVVLKLTSVDPVDTATYYCARTVSSGYIYYAMDYWGQGTLVTVSSASTKGPEVQLVQSGAEVKKPGASVKVSCKASGYTFNNYGIIWVRQAPGQGLEWMGWINTYTGKPTYAQKFQGRVTMTTDTSTSTAYMELSSLRSEDTAVYYCARKLFNTVAVTDNAMDYWGQGTTVTVSS
VL: DIQMTQSPSSLSASVGDRVTISCRASQDIRNYLNWYQQKPGKAPKLLIFYTSKLHSGVPSRFSGSGSGTDYTLTISSLQPEDIATYYCQQGLTPPLTFGGGTKVEIKRTVAAPSVFIFPPDIQMTQSPSSLSASVGDRVTITCRASQDIENYLNWYQQKPGKAPKLLIYYTSRLQSGVPSRFSGSGSGTDFTLTISSLQPEDFATYFCQQGNTQPPTFGQGTKLEIKR
B6: DVD3013 (bispecific antibody, IgG1)
VH: EVTLRESGPGLVKPTQTLTLTCTLYGFSLSTSDMGVDWIRQPPGKGLEWLAHIWWDDVKRYNPALKSRLTISKDTSKNQVVLKLTSVDPVDTATYYCARTVSSGYIYYAMDYWGQGTLVTVSSGGGGSGGGGSEVQLVQSGAEVKKPGASVKVSCKASGYTFNNYGIIWVRQAPGQGLEWMGWINTYTGKPTYAQKFQGRVTMTTDTSTSTAYMELSSLRSEDTAVYYCARKLFNTVAVTDNAMDYWGQGTTVTVSS
VL: DIQMTQSPSSLSASVGDRVTISCRASQDIRNYLNWYQQKPGKAPKLLIFYTSKLHSGVPSRFSGSGSGTDYTLTISSLQPEDIATYYCQQGLTPPLTFGGGTKVEIKRGGSGGGGSGDIQMTQSPSSLSASVGDRVTITCRASQDIENYLNWYQQKPGKAPKLLIYYTSRLQSGVPSRFSGSGSGTDFTLTISSLQPEDFATYFCQQGNTQPPTFGQGTKLEIKR
B7: DVD3089 (bispecific antibody, IgG1)
VH: EVQLVQSGAEVKKPGASVKVSCKASGYTFTTYGVSWVRQAPGQGLEWMGEIYPGNYNTYYNEKFRGRVTMTTDTSTSTAYMELRSLRSDDTAVYYCARWRTSYFSDYGYFDYWGQGTTVTVSSASTKGPEVQLVESGGGLVQPGGSLRLSCAASGFTFSNYGVTWVRQAPGKGLEWVSMIWADGSTHYASSVKGRFTISRDNSKNTLYLQMNSLRAEDTAVYYCAREWQHGPVAYWGQGTLVTVSS
VL: DVVMTQSPLSLPVTLGQPASISCRSSQSLVHSHGNTYLHWYQQRPGQSPRLLIYTVSNRFSGVPDRFSGSGSGTDFTLKISRVEAEDVGVYYCSQSTHVPYTFGGGTKVEIKRTVAAPDIQMTQSPSSLSASVGDRVTITCRASQLVSSAVAWYQQKPGKAPKLLIYWASARHTGVPSRFSGSGSGTDFTLTISSLQPEDFATYYCQQHYKTPFTFGQGTKLEIKR
B8: DVD3091 (bispecific antibody, IgG1)
VH: EVQLVQSGAEVKKPGASVKVSCKASGYTFTTYGVSWVRQAPGQGLEWMGEIYPGNYNTYYNEKFRGRVTMTTDTSTSTAYMELRSLRSDDTAVYYCARWRTSYFSDYGYFDYWGQGTTVTVSSASTKGPEVQLVESGGGLVQPGGSLRLSCAASGFTFSNYGVTWVRQAPGKGLEWVSMIWADGSTHYASSVKGRFTISRDNSKNTLYLQMNSLRAEDTAVYYCAREWQHGPVAYWGQGTLVTVSS
VL: DVVMTQSPLSLPVTLGQPASISCRSSQSLVHSHGNTYLHWYQQRPGQSPRLLIYTVSNRFSGVPDRFSGSGSGTDFTLKISRVEAEDVGVYYCSQSTHVPYTFGGGTKVEIKRTVAAPSVFIFPPDIQMTQSPSSLSASVGDRVTITCRASQLVSSAVAWYQQKPGKAPKLLIYWASARHTGVPSRFSGSGSGTDFTLTISSLQPEDFATYYCQQHYKTPFTFGQGTKLEIKR
B9: DVD3088 (bispecific antibody, IgG1)
VH: EVQLVQSGAEVKKPGASVKVSCKASGYTFTTYGVSWVRQAPGQGLEWMGEIYPGNYNTYYNEKFRGRVTMTTDTSTSTAYMELRSLRSDDTAVYYCARWRTSYFSDYGYFDYWGQGTTVTVSSGGGGSGGGGSEVQLVESGGGLVQPGGSLRLSCAASGFTFSNYGVTWVRQAPGKGLEWVSMIWADGSTHYASSVKGRFTISRDNSKNTLYLQMNSLRAEDTAVYYCAREWQHGPVAYWGQGTLVTVSS
VL: DVVMTQSPLSLPVTLGQPASISCRSSQSLVHSHGNTYLHWYQQRPGQSPRLLIYTVSNRFSGVPDRFSGSGSGTDFTLKISRVEAEDVGVYYCSQSTHVPYTFGGGTKVEIKRGGSGGGGSGDIQMTQSPSSLSASVGDRVTITCRASQLVSSAVAWYQQKPGKAPKLLIYWASARHTGVPSRFSGSGSGTDFTLTISSLQPEDFATYYCQQHYKTPFTFGQGTKLEIKR
B10: DVD3098 (bispecific antibody, IgG1)
VH: EVQLVQSGAEVKKPGASVKVSCKASGYTFTTYGVSWVRQAPGQGLEWMGEIYPGNYNTYYNEKFRGRVTMTTDTSTSTAYMELRSLRSDDTAVYYCARWRTSYFSDYGYFDYWGQGTTVTVSSGGGGSGGGGSEVQLVESGGGLVQPGGSLRLSCAASGFTFSNYGVEWVRQAPGKGLEWVSGIWADGSTHYADTVKSRFTISRDNSKNTLYLQMNSLRAEDTAVYYCAREWQHGPVAYWGQGTLVTVSS
VL: DVVMTQSPLSLPVTLGQPASISCRSSQSLVHSHGNTYLHWYQQRPGQSPRLLIYTVSNRFSGVPDRFSGSGSGTDFTLKISRVEAEDVGVYYCSQSTHVPYTFGGGTKVEIKRGGSGGGGSGDIQMTQSPSSLSASVGDRVTITCKASQLVSSAVAWYQQKPGKAPKLLIYWASTLHTGVPSRFSGSGSGTDFTLTISSLQPEDFATYYCQQHYRTPFTFGQGTKLEIKR
B11: DVD2792 (bispecific antibody, IgG1)
VH: EVTLRESGPGLVKPTQTLTLTCTLYGFSLSTSDMGVDWIRQPPGKGLEWLAHIWWDDVKRYNPALKSRLTISKDTSKNQVVLKLTSVDPVDTATYYCARTVSSGYIYYAMDYWGQGTLVTVSSASTKGPSVFPLAPEVQLVQSGAEVKKPGASVKVSCKASGYTFANYGIIWVRQAPGQGLEWMGWINTYTGKPTYAQKFQGRVTMTTDTSTSTAYMELSSLRSEDTAVYYCARKLFTTMDVTDNAMDYWGQGTTVTVSS
VL: DIQMTQSPSSLSASVGDRVTISCRASQDIRNYLNWYQQKPGKAPKLLIFYTSKLHSGVPSRFSGSGSGTDYTLTISSLQPEDIATYYCQQGLTPPLTFGGGTKVEIKRTVAAPDIQMTQSPSSLSASVGDRVTITCRASQDISQYLNWYQQKPGKAPKLLIYYTSRLQSGVPSRFSGSGSGTDFTLTISSLQPEDFATYFCQQGNTWPPTFGQGTKLEIKR
B12: DVD3017 (bispecific antibody, IgG1)
VH: EVTLRESGPGLVKPTQTLTLTCTLYGFSLSTSDMGVDWIRQPPGKGLEWLAHIWWDDVKRYNPALKSRLTISKDTSKNQVVLKLTSVDPVDTATYYCARTVSSGYIYYAMDYWGQGTLVTVSSASTKGPSVFPLAPEVQLVQSGAEVKKPGASVKVSCKASGYTFNNYGIIWVRQAPGQGLEWMGWINTYTGKPTYAQKFQGRVTMTTDTSTSTAYMELSSLRSEDTAVYYCARKLFNTVAVTDNAMDYWGQGTTVTVSS
VL: DIQMTQSPSSLSASVGDRVTISCRASQDIRNYLNWYQQKPGKAPKLLIFYTSKLHSGVPSRFSGSGSGTDYTLTISSLQPEDIATYYCQQGLTPPLTFGGGTKVEIKRTVAAPDIQMTQSPSSLSASVGDRVTITCRASQDIENYLNWYQQKPGKAPKLLIYYTSRLQSGVPSRFSGSGSGTDFTLTISSLQPEDFATYFCQQGNTQPPTFGQGTKLEIKR

Target: Recombinant Human TNF-α/TNFSF1A (human, UniProt P01375 77-233)
Experiment: cell-based or functional assay

Sequence of Recombinant Human TNF-α/TNFSF1A (P01375 77-233 limits assumed): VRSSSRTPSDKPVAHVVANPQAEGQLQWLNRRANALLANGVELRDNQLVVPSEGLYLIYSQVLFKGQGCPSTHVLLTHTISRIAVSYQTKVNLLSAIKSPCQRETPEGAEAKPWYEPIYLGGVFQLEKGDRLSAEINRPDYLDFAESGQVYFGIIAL

Row | Binder | N-Terminal VD huTNFα Neutralization Assay IC50 | C-Terminal VD huTNFα Neutralization Assay IC50
1 | B1 | 34 pM | –
2 | B2 | 24 pM | –
3 | B3 | – | 64 pM
4 | B4 | – | 490 pM
5 | B5 | – | 148 pM
6 | B6 | – | 229 pM
7 | B7 | – | 520 pM
8 | B8 | – | 192 pM
9 | B9 | – | 472 pM
10 | B10 | 12 pM | –
11 | B11 | – | 136 pM
12 | B12 | – | 234 pM
